According to paper PMC3950706, “SUMOylation of the polycomb group protein L3MBTL2 facilitates repression of its target genes” (Nucleic Acids Research, 2013):
Where no end group is shown, it is not given here. Me3 = tri-methylation (trimethyl-lysine); Me2 = di-methylation (dimethyl-lysine)

Legend:
Details in all cases: both partners purified
[1] = biological target: T1, 3xFLAG-L3MBTL2 K675/700R mutant (human, UniProt Q969R5 1-705, K675/700R | K675/700R); assay: pull-down; histone peptides immobilised on resin; 3xFLAG-L3MBTL2 immunoprecipitated from N-ethylmaleimide-treated nuclear extracts of stably transfected HEK293 cells and then incubated with the peptides; bound protein detected by anti-FLAG western blot
T1 construct: L3MBTL2, human, with K675R and K700R; Associated proteins may be present after the immunoprecipitation; also called SUMOylation-defective L3MBTL2; K/R; source: HEK293, stably transfected, immunoprecipitated from N-ethylmaleimide-treated nuclear extracts

[2] = biological target: T2, wild-type 3xFLAG-L3MBTL2 (human, UniProt Q969R5 1-705); assay: as above
T2 construct: L3MBTL2, human, wild type; The cellular wild-type protein is partly SUMOylated (SUMO2/3 at K675 and K700); Associated proteins may be present after the immunoprecipitation; also called FLAG-L3MBTL2 WT; 3xFLAG-L3MBTL2 WT; source: HEK293, stably transfected, immunoprecipitated from N-ethylmaleimide-treated nuclear extracts

[3] = biological target: T3, recombinant full-length His-L3MBTL2 (human, UniProt Q969R5 1-705); assay: pull-down; histone peptides immobilised by a C-terminal cysteine on SulfoLink Coupling Resin; recombinant His-tagged proteins in 25 mM Tris-HCl pH 8, 150 mM NaCl, 2 mM EDTA, 0.5% NP 40, 1 h at 4°C (time course 5-60 min); bound protein detected by anti-His western blot; for SUMOylated L3MBTL2 the in vitro SUMOylation reaction was used
T3 construct: L3MBTL2 (Lethal(3) malignant brain tumour like 2), human, full length; also called 6xHis-L3MBTL2; His-L2; source: bacterially expressed, recombinant

[4] = biological target: T4, 4xMBT-repeat domain of L3MBTL2 (human, UniProt Q969R5 170-619); assay: as above
T4 construct: L3MBTL2, human, isolated 4xMBT-repeat domain, aa 170-619; also called His-4xMBT

Measured: binding result

T2 sequence (Q969R5 whole entry): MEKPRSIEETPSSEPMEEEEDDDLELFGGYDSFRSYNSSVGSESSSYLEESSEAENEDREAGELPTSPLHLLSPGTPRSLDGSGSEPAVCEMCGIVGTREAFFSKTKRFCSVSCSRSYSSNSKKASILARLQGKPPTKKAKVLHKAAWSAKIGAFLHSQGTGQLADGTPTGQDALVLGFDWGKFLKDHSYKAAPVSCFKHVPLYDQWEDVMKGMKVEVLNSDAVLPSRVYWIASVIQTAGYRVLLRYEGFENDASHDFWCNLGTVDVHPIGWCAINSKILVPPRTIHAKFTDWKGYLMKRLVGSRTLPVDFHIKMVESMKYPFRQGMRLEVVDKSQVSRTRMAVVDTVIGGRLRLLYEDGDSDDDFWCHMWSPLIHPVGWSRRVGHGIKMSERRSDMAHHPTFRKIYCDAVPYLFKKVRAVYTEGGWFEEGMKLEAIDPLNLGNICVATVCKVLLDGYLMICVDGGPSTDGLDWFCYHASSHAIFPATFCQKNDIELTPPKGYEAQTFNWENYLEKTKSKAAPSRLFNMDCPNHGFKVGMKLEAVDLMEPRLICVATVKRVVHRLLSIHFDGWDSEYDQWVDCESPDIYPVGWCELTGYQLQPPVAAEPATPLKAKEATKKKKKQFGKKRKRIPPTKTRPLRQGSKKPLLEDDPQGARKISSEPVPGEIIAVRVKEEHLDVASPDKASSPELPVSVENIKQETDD
T3 sequence (Q969R5 whole entry): as above
T1 sequence (Q969R5 other isoform, or with tags, fused parts or gaps K675/700R | K675/700R | K675/700R | K675/700R | mutant): as the sequence (Q969R5 whole entry) above, with K675R, K700R counted along it
T4 sequence (Q969R5 170-619): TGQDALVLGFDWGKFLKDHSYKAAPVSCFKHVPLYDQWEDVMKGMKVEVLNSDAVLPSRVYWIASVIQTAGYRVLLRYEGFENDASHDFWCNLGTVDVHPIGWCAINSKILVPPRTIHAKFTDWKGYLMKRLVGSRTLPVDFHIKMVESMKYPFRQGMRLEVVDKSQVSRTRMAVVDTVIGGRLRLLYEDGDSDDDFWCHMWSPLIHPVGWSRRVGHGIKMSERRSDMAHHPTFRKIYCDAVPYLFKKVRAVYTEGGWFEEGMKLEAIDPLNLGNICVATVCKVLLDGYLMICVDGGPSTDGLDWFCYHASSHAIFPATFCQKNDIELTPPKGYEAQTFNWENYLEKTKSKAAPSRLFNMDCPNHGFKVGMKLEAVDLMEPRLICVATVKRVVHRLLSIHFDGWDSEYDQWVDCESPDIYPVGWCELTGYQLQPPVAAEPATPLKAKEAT

B1: histone H3 peptide (residues 1-15) tri-methylated at K9 (peptide)
peptide: ARTKQTARKSTGGKAC
modifications: trimethyl-lysine at K9
notes: histone H3, residues 1-15; added C-terminal cysteine, by which the peptide was coupled to SulfoLink resin; also called H3K9me3
binds: [1] | [2] | [3]

B2: histone H3 peptide (residues 1-15) di-methylated at K9 (peptide)
peptide: ARTKQTARKSTGGKAC
modifications: dimethyl-lysine at K9
notes: histone H3, residues 1-15; added C-terminal cysteine, by which the peptide was coupled to SulfoLink resin; also called H3K9me2
binds: [1] | [2] | [3]

B3: unmethylated histone H4 peptide (residues 16-25) (peptide)
peptide: KRHRKVLRDNC
notes: histone H4, residues 16-25; added C-terminal cysteine, by which the peptide was coupled to SulfoLink resin; also called H4K20
binds: [1] | [2] | [3]

B4: histone H4 peptide (residues 16-25) tri-methylated at K20 (peptide)
peptide: KRHRK(Me3)VLRDNC
notes: histone H4, residues 16-25; added C-terminal cysteine, by which the peptide was coupled to SulfoLink resin; also called H4K20me3
binds: [1] | [2] | [3]

B5: histone H3 peptide (residues 1-15) mono-methylated at K9 (peptide)
peptide: ARTKQTARKSTGGKAC
modifications: monomethyl-lysine at K9
notes: histone H3, residues 1-15; added C-terminal cysteine, by which the peptide was coupled to SulfoLink resin; also called H3K9me1
binds: [1] | [2] | [3]

B6: histone H4 peptide (residues 16-25) di-methylated at K20 (peptide)
peptide: KRHRK(Me2)VLRDNC
notes: histone H4, residues 16-25; added C-terminal cysteine, by which the peptide was coupled to SulfoLink resin; also called H4K20me2
binds: all assays above

B7: unmethylated histone H3 peptide (residues 1-15) (peptide)
peptide: ARTKQTARKSTGGKAC
notes: histone H3, residues 1-15; added C-terminal cysteine, by which the peptide was coupled to SulfoLink resin
binds: [1] | [2] | [3]

B8: histone H4 peptide (residues 16-25) mono-methylated at K20 (peptide)
peptide: KRHRK(Me)VLRDNC
notes: histone H4, residues 16-25; added C-terminal cysteine, by which the peptide was coupled to SulfoLink resin; also called H4K20me1
binds: [1] | [2] | [3]
